± gives the uncertainty stated by the source.
Test: self-splicing fitness, log relative to wild type (ln ratio); higher = more splicing; Tetrahymena group I intron in knt gene, E. coli kanamycin selection, DiMSum; sequences stand for … in CUCUCU…GGAGGGAAAAGUUAUCAGGCAUGCACCUGGUAGCUAGUCUUUAAACCAAUAGAUUGCAUCGGUUUAAAAGGCAAGACCGUCAAAUUGCGGGAAAGGGGUCAACAGCCGUUCAGUACCAAGUCUCAGGGGAAACUUUGAGAUGGCCUUGCAAAGGGUAUGGUAAUAAGCUGACGGACAUGGUCCUAACCACGCAGCCAAGUCCUAAGUCAACAGAUCUUCUGUUGAUAUGGAUGCAGUUCACAGACUAAAUGUCGGUCGGGGAAGAUGUAUUCUUCUCAUAAGAUAUAGUCGGACCUCUCCUUAAUGGGAGCUAGCGGAUGAAGUGAUGCAACACUGGAGCCGCUGGGAACUAAUUUGUAUGCGAAAGUAUAUUGAUUAGUUUUGGAGUACUCGUGGUCG
Method in brief: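 Pooled colonies went to amplicon sequencing on an Illumina HiSeq 2500 after six replicate transformations. The plates were LB agar with 100 μg/mL carbenicillin, 50 μM IPTG and 0.2% rhamnose, with or without 25 μg/mL kanamycin, incubated overnight at 37°C or 30°C. The E. coli BL21(DE3) library had all eight P1ex-region intron nucleotides randomised, the intron placed in the knt kanamycin-resistance gene on pET-22b(+). DiMSum fitness is the error-weighted combination of replicate fold changes, kanamycin against none, normalised to wild type.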

Sequence	self-splicing fitness (ln) (30 °C)	self-splicing fitness (ln) (37 °C)
ACAUAGCAAUAUUACGAGCU	-1.32 ± 0.12	-0.388 ± 0.13
ACAUAGCAAUAUUACGAUAC	-3.6 ± 0.23	-2.2 ± 0.25
ACAUAGCAAUAUUACGAUCG	0.0966 ± 0.084	-0.312 ± 0.13
ACAUAGCAAUAUUACGAUUC	-2.52 ± 0.15	-1.52 ± 0.12
ACAUAGCAAUAUUACGGAAC	-3.66 ± 0.24	-2 ± 0.27
ACAUAGCAAUAUUACGGCCC	-1.29 ± 0.14	-0.169 ± 0.23
ACAUAGCAAUAUUACGGCUC	-0.967 ± 0.092	-0.28 ± 0.12
ACAUAGCAAUAUUACGGGCG	-1.28 ± 0.09	-1 ± 0.096
ACAUAGCAAUAUUACGUCCC	-1.71 ± 0.15	-0.222 ± 0.23
ACAUAGCAAUAUUACGUCGC	-4.47 ± 0.38	-1.69 ± 0.24
ACAUAGCAAUAUUACGUGCG	-1.05 ± 0.064	-0.527 ± 0.081
ACAUAGCAAUAUUACGUGUG	-2.41 ± 0.065	-1.58 ± 0.069
ACAUAGCAAUAUUACGUUAU	-4.28 ± 0.29	-3.07 ± 0.2
ACAUAGCAAUAUUACGUUGA	-2.56 ± 0.17	-1.66 ± 0.14
ACAUAGCAAUAUUACGUUUA	-2.82 ± 0.19	-1.75 ± 0.14
ACCAAGCAAUAUUACGAAAG	-3.27 ± 0.18	-1.78 ± 0.14
ACCAAGCAAUAUUACGAGAA	-2.87 ± 0.34	-2.32 ± 0.3
ACCAAGCAAUAUUACGAGCA	-2.53 ± 0.12	-0.958 ± 0.099
ACCAAGCAAUAUUACGAGUA	-2.81 ± 0.14	-2.29 ± 0.13
ACCAAGCAAUAUUACGAGUU	-4.23 ± 0.23	-1.99 ± 0.17

Sequence	self-splicing fitness (ln) (30 °C)	self-splicing fitness (ln) (37 °C)
ACCAAGCAAUAUUACGAUAG	-4.36 ± 0.23	-2.7 ± 0.21
ACCAAGCAAUAUUACGAUCC	-1.83 ± 0.093	-0.778 ± 0.14
ACCAAGCAAUAUUACGCAGC	-1.83 ± 0.11	-1.12 ± 0.13
ACCAAGCAAUAUUACGCCGA	-2.23 ± 0.15	-1.81 ± 0.16
ACCAAGCAAUAUUACGCCGG	-2.33 ± 0.13	-0.125 ± 0.13
ACCAAGCAAUAUUACGCCGU	-3.18 ± 0.17	-1.66 ± 0.15
ACCAAGCAAUAUUACGCGAC	-3.19 ± 0.16	-1.59 ± 0.16
ACCAAGCAAUAUUACGCGCA	-0.525 ± 0.054	-0.106 ± 0.07
ACCAAGCAAUAUUACGCUGG	-2.75 ± 0.15	-2.72 ± 0.21
ACCAAGCAAUAUUACGCUUG	-2.72 ± 0.21	-3.79 ± 0.36
ACCAAGCAAUAUUACGGACA	-0.841 ± 0.068	-0.38 ± 0.072
ACCAAGCAAUAUUACGGCUU	-3.85 ± 0.2	-1.85 ± 0.16
ACCAAGCAAUAUUACGGUCA	-1.36 ± 0.082	-0.9 ± 0.086
ACCAAGCAAUAUUACGUAAC	-3.94 ± 0.17	-2.19 ± 0.16
ACCAAGCAAUAUUACGUAGG	-2.55 ± 0.068	-2.03 ± 0.096
ACCAAGCAAUAUUACGUCCA	-2.01 ± 0.096	-1.3 ± 0.1
ACCAAGCAAUAUUACGUGAU	-2.46 ± 0.072	-0.924 ± 0.074
ACCAAGCAAUAUUACGUGCC	-0.735 ± 0.082	-0.801 ± 0.13
ACCCAGCAAUAUUACGAACC	-2.19 ± 0.15	-0.993 ± 0.15
ACCCAGCAAUAUUACGACAG	-3.36 ± 0.12	-1.67 ± 0.11

Sequence	self-splicing fitness (ln) (30 °C)	self-splicing fitness (ln) (37 °C)
ACCCAGCAAUAUUACGACGU	-0.291 ± 0.055	0.39 ± 0.071
ACCCAGCAAUAUUACGAGAG	-2.16 ± 0.086	-0.789 ± 0.09
ACCCAGCAAUAUUACGAUAU	-1.72 ± 0.1	-0.318 ± 0.11
ACCCAGCAAUAUUACGAUCA	-0.557 ± 0.11	-0.56 ± 0.13
ACCCAGCAAUAUUACGAUCU	-1.34 ± 0.068	-0.243 ± 0.084
ACCCAGCAAUAUUACGCAAU	-0.941 ± 0.053	0.344 ± 0.064
ACCCAGCAAUAUUACGCAGG	-3.07 ± 0.11	-2.48 ± 0.16
ACCCAGCAAUAUUACGCAUA	-1.19 ± 0.061	-1.07 ± 0.066
ACCCAGCAAUAUUACGCCCA	-0.605 ± 0.12	-0.4 ± 0.13
ACCCAGCAAUAUUACGCCCG	-2.3 ± 0.18	-1.22 ± 0.19
ACCCAGCAAUAUUACGCCCU	-0.0641 ± 0.052	0.262 ± 0.091
ACCCAGCAAUAUUACGCCUG	-2.21 ± 0.12	-3 ± 0.26
ACCCAGCAAUAUUACGCGAA	-1.26 ± 0.068	-0.703 ± 0.078
ACCCAGCAAUAUUACGCUAG	-2.81 ± 0.1	-1.77 ± 0.12
ACCCAGCAAUAUUACGCUUG	-3.38 ± 0.11	-2.43 ± 0.12
ACCCAGCAAUAUUACGGCAU	-0.483 ± 0.042	0.0474 ± 0.058
ACCCAGCAAUAUUACGGGGA	-1.02 ± 0.053	-0.524 ± 0.065
ACCCAGCAAUAUUACGGUAU	-0.563 ± 0.047	-0.154 ± 0.068
ACCCAGCAAUAUUACGGUCC	-1.61 ± 0.085	-1.4 ± 0.12

— the supplement of paper PMC7877785
